From patent US20120277143A1 (Janssen / Centocor, published 2012) come the findings set out here.

Experiment [1] has as its target T1, human IL4 (human, UniProt P05112 25-153, biotinylated in the SPR and competition assays (sites not given)).
T1 construct: Peprotech #200-04, mature protein produced in E. coli; also called hIL4; Interleukin 4
T1 sequence: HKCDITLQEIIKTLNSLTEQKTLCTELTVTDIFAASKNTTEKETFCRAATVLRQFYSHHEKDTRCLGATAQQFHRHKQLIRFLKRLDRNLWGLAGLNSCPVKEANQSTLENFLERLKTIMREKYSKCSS
Put plainly: SPR ProteOn, biotin-IL4 on neutravidin chip, 1:1 fit. The method, then: Purified binders selected as “hits” were ranked by their affinity on a ProteOn XPR-36 instrument (Bio-Rad). ProteOn is an optical biosensor instrument that measures protein-protein interactions in real time, based on Surface Plasmon Resonance technology similar to Biacore (GE). A rapid experimental protocol was performed as follows: On a GLC sensor chip (Bio-Rad), Neutravidin (Thermo Scientific) was covalently immobilized to a density of >5000 RU using amine coupling chemistry as described by the manufacturer. On one flow cell, biotinylated IL4 (Peprotech) was immobilized to a level of 250 RU, while another flow cell was used as reference, with neutravidin immobilized only. […] The retrieved values were used to rank the AR proteins by their affinity.

Experiment [2] concerns the target T1, human IL4. Put plainly: cell-based or functional assay.
Experiment [3] addresses T1, human IL4. Briefly: Luminex competition, 67 pM biotin-IL4 binding to IL4RA-Fc beads. The method, then: For biotinylation of IL4, recombinant human IL4 (Peprotech) was biotinylated at a 4:1 ratio using EZ-Link NHS-LC-Biotin (Pierce, #21336) for 2 hours at RT. The protein was dialyzed in PBS overnight to remove excess biotinylation reagent. Competition binding for cynomologous IL4 (SEQ ID NO: 5) was performed using the isolated protein biotinylated in the same manner.
AR protein inhibition of IL4 binding to IL4 RA was assessed using IL4 RA-Fc (R&D Systems), comprising the Gly24-His232 which represents the ECD (SEQ ID NO: 5) fused to a human IgGl-Fc and therefor a disulfide linked homodimer. The protein was conjugated to carboxylated Luminex microspheres according to the manufacturer's protocol. For neutralization experiments, 5000 IL4RA-Fc conjugated beads in 50 μl were added to each well of a 96-well filter plate (Millipore). Biotinylated human IL4 was mixed with an appropriate dilution of AR protein in Luminex Assay Buffer (PBS, 1% BSA, pH 7.4) to give a final concentration of 67 pM IL4. The plate was incubated for 1 hour at RT in the dark on a plate shaker, set to shake vigorously to avoid bead aggregation. The plate was washed twice with 150 μl of wash buffer (PBS, 0.1% BSA, pH 7.4, 0.05% Tween-20) using a vacuum manifold followed by the addition of 50 μl of Streptavidin PE at 25 μg/ml and incubated at RT for 20 minutes. The plates were washed again and 150 μl of sheath fluid was added and the plate was placed on the shaker for 5 minute. Plates were read using a Luminex® 100 system; data were plotted as a function of AR protein concentration. IC₅₀ values were determined by fitting the data to the equation for sigmoidal dose response using PRISM software (GraphPAD PRISM) (Table 6).

Experiment [4] has as its target T2, human IL13 (human, UniProt P35225 35-146, biotinylated in the SPR assays (sites not given)).
T2 construct: Peprotech; also called hIL13; recombinant human IL13
Put plainly: SPR BIAcore, biotin-IL13 on SA chip, global fit. The procedure: Recombinant human IL13 (Peprotech) was minimally biotinylated on ice using sulfo-NHS-LCLC-Biotin and desalted into the experimental running buffer containing 10 mM HEPES, 150 mM NaCl, pH 7.4, 0.01% Tween-20, and 0.1 mg/mL BSA. Biotinylated IL13 was captured at three different surface densities (from about 150, 50, and 25 RU) onto three different BIAcore SA (streptavidin) sensor chips. Each binding protein sample was tested at 40 nM as the highest concentration in a 3-fold dilution series over the three different density IL13 surfaces. The dissociation phase for the highest concentration of the binding protein sample was monitored for one hour. The response data from each of the different density surfaces was globally fitted in order to extract estimates of the kinetic and affinity constants which are provided in Table 7 below.
(In general: SPR reads the build-up and loss of mass on a sensor chip optically.)

In a further experiment the target is T3, human IL13 R130Q (human, UniProt P35225 35-146, biotinylated (sites not given)).
T3 construct: Peprotech; also called IL13R13Q; R111Q
Briefly: Luminex competition, 80 pM biotin-IL13 R130Q binding to IL13Ra2-Fc beads. The method, then: Binding protein inhibition of IL13 binding to Rα2 was assessed using IL13Rα2-Fc (R&D Systems) conjugated to carboxylated Luminex microspheres according to the manufacturer's protocol. For biotinylation of IL13, recombinant human IL13 R130Q (Peprotech) was biotinylated at a 4:1 ratio using EZ-Link NHS-LC-Biotin (Pierce, #21336) for 2 hours at RT. The protein was dialyzed in PBS overnight to remove excess biotinylation reagent. For neutralization experiments, 5000 IL13 Rα2-Fc conjugated beads in 50 μl were added to each well of a 96-well filter plate (Millipore). 50 μl of biotinylated human IL13 at 1 ng/ml (80 pM) was mixed with an appropriate dilution of binding protein in Luminex Assay Buffer (PBS, 1% BSA, pH 7.4). The plate was incubated for 1 hour at RT in the dark on a plate shaker, set to shake vigorously to avoid bead aggregation. The plate was washed 3 times with 150 μl of wash buffer (PBS, 1% BSA, pH 7.4, 0.05% Tween-20) using a vacuum manifold followed by the addition of 50 μl of Streptavidin PE at 25 μg/ml and incubated at RT for 20 minutes. The plates were washed again and 100 μl of sheath fluid was added and the plate was placed on the shaker for 1 minute. Plates were read using a Luminex® 100 system; data were plotted as a function of binding protein concentration. IC₅₀ values were determined by fitting the data to the equation for sigmoidal dose response using PRIZM software (GraphPAD PRIZM).

In a further experiment the target is cyno IL13 (cynomolgus monkey, UniProt Q0PW92 21-132). Put plainly: cell-based or functional assay.
In experiment [5] the target is T2, human IL13. Briefly: cell-based or functional assay.

T2 sequence (P35225 other isoform, or with tags, fused parts or gaps limits assumed): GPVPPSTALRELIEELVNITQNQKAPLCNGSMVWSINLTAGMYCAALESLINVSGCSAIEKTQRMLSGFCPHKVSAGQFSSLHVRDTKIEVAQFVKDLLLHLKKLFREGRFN
T3 sequence (P35225 35-146 limits assumed, stated change not applied): as the sequence (P35225 other isoform, or with tags, fused parts or gaps limits assumed) above, with R110Q counted along it
Sequence of cyno IL13 (Q0PW92 entry or part of it): as the sequence (P35225 other isoform, or with tags, fused parts or gaps limits assumed) above, with G1S, R10K, M42V, S67N, H83R, L100V, R110Q counted along it

B1: C06_53G6 (designed binder)
chain: NLGKKLLEAARAGQDDEVRILMANGADVNATDDWGDTLLHLAATDGHLEIVEVLLKYGADVNANDAIGDTPLHLAALYGHLEIVEVLLKYGADVNATDLHGFTPLHLAAFWGHLEIVEVLLKHGADVNAQDKFGKTAFDISIDNGNEDLAEILQKLN
notes: ankyrin repeat protein; His-tagged, IMAC-purified
As to B1, in the experiment with human IL4 [1], the dissociation constant Kd (usually a measure of binding affinity in units of concentration) was determined as 73.4 pM; the dissociation rate constant (koff) (usually a measure of how fast the partners let go of each other) is 5.11e-05 s⁻¹; the on-rate (kon) – broadly, the rate constant with which the complex forms – is 696000 M⁻¹ s⁻¹. In the experiment with human IL4 [2], the “A549 TARC Inhibition IC50” value amounted to 135 pM, the “HEK Stat6 Inhibition IC50” value was found to be 2.1 pM and the “Type 1 Complex inhibition IC50” value is 0.9 pM. Besides, the IC50 – broadly, the midpoint of a concentration-inhibition curve – with human IL4 [3] stood at 16.1 pM.

B2: 5D12 (designed binder)
chain: DLGKKLLEAARAGQDDEVRILMANGADVNAVDDYGSTPLHLAARQGHLEIVEVLLKNGADVNADDFIGDTPLHLAAFKGHLEIVEVLLKNGADVNASDITGETPLHLAATAGHLEIVEVLLKHGADVNAQDKFGKTAFDISIDNGNEDLAEILQKLN
notes: N-Cap-(AR)3-C-Cap
B2: in the experiment with human IL13 [4], binding was put at a Kd of 168 pM, the koff came to 0.000184 s⁻¹ and the on-rate constant (kon) turned out to be 1.1e+06 M⁻¹ s⁻¹. For the same molecule, the IC50 with human IL13 R130Q was 10.2 pM. Further, the “Cyno IL13 STAT6 IC50” value in the experiment with cyno IL13 came to 159 pM. Besides, in the experiment with human IL13 [5], the “STAT6 Phospho IC50” value is 5.4 pM and the “TARC expression IC50” value was 34.1 pM.

B3: 6D4 (designed binder)
chain: DLGKKLLEAARAGQDDEVRILMANGADVNAADDYGSTPLHLAARSGHLEIVEVLLKHGADVNANDFIGDTPLHLAAYNGHLEIVEVLLKNGADVNATDITGETPLHLAAERGHLEIVEVLLKNGADVNTQDKFGKTAFDISIDNGNEDLAEILQKLN
notes: N-Cap-(AR)3-C-Cap
In the experiment with human IL13 [4], B3 registered a dissociation constant Kd of 77.6 pM, an off-rate (koff) of 9.08e-05 s⁻¹ and an on-rate constant (kon) of 1.17e+06 M⁻¹ s⁻¹. Besides, the 50% inhibitory concentration (IC50) in the experiment with human IL13 R130Q was found to be 4.8 pM. For the same molecule, in the experiment with cyno IL13, the “Cyno IL13 STAT6 IC50” value stood at 51.3 pM. Moreover, in the experiment with human IL13 [5], the “STAT6 Phospho IC50” value is 4.2 pM and the “TARC expression IC50” value was determined as 83.3 pM.

B4: 5H7 (designed binder)
chain: DLGKKLLEAARAGQDDEVRILMANGADVNAADMYGTTPQHLAARTGHLEIVEVLLKYGADVNAADFLGDTPLHLAAYHGHLEIVEVLLKHGADVNASDITGETPLHLAAHLGHLEIVEVLLKYGADVNAQDKFGKTAFDISIDNGNEDLAEILQKLN
notes: N-Cap-(AR)3-C-Cap
Regarding B4, in the experiment with human IL13 [4], the affinity, expressed as Kd, was 263 pM; the koff was 0.000894 s⁻¹; the kon stood at 3.4e+06 M⁻¹ s⁻¹. For the same molecule, the half-maximal inhibitory concentration (IC50) with human IL13 R130Q is 158 pM. Besides, the “Cyno IL13 STAT6 IC50” value in the experiment with cyno IL13 turned out to be 527 pM. Further, in the experiment with human IL13 [5], the “STAT6 Phospho IC50” value stood at 42.9 pM and the “TARC expression IC50” value was determined as 132 pM.

B5: C06_44F6 (designed binder)
chain: DLGKELLEAARAGQDDEVHILMANGADVNALDDSGYTPLHLAAEDGHLEIVEVLLKHGADVNAMDNIGNTSLHLAAFDGHLEIVEVLLKYGADVNAVDLAGVTPLHVAAFYGHLEIVEVLLKHGADVNAQDKFGKTAFDISIDNGNEDLAEILQKLN
notes: as for B1
In the experiment with human IL4 [1], B5 came in with a Kd of 96.7 pM, a koff of 0.0002 s⁻¹ and a kon of 2.07e+06 M⁻¹ s⁻¹. Further, in the experiment with human IL4 [2], the “A549 TARC Inhibition IC50” value was determined as 142 pM, the “HEK Stat6 Inhibition IC50” value was 6.4 pM and the “Type 1 Complex inhibition IC50” value came to 24.9 pM. This molecule gave an IC50 with human IL4 [3] of 15.8 pM.

B6: C06_48F3 (designed binder)
chain: DLGKKLLEAARAGQDDEVRILMANGADVNAFDDSGLTPLHLAADDGHLEIVEVLLKHGADVNAADRMGDTPLHLAAFVGHLEIVEVLLKYGADVNAVDLAGVTPLHVAAFYGHLEIVEVLLKYGADVNAQDKFGKTAFDISIDNGNEDLAEILQKLN
notes: as for B1
In the experiment with human IL4 [1], B6 registered a Kd of 174 pM, a koff of 0.000151 s⁻¹ and a kon of 872000 M⁻¹ s⁻¹. For the same molecule, in the experiment with human IL4 [2], the “HEK Stat6 Inhibition IC50” value amounted to 4.7 pM. In the experiment with human IL4 [3], this molecule came in with an IC50 of 19.7 pM.

B7: C06_6E9 (designed binder)
chain: DLGKKLLEAARAGQDDEVRILMANGADVNAIDSDGTTPLHLAAMDGHLEIVEVLLKYGADVNAVDWNGDTPLHLAAVDGHLEIVEVLLKYGADVNAQDNLGDTPLHLAAYYGHLEIVEVLLKHGADVNASDFHGITPLHLAAFSGHLEIVEVLLKYGADVNAQDKFGKTAFDISIDNGNEDLAEILQKLN
notes: as for B1
In the experiment with human IL4 [1], B7 yielded a Kd of 74.9 pM, a koff of 7.16e-05 s⁻¹ and a kon of 956000 M⁻¹ s⁻¹. Besides, in the experiment with human IL4 [2], the “A549 TARC Inhibition IC50” value stood at 131 pM, the “HEK Stat6 Inhibition IC50” value worked out at 0.6 pM and the “Type 1 Complex inhibition IC50” value worked out at 0.4 pM. Moreover, the IC50 in the experiment with human IL4 [3] worked out at 7.6 pM.

B8: C06_53E9 (designed binder)
chain: DLGKELLEAASAGQDDEVHILMANGADVNASDKDGSTPLHLAAVYGHLEIVEVLLKYGADVNAEDMNGYTPLHLAAADGHLEIVEVLLKYGADVDAKDRTGWTPLHLAGEFGHLEIVEVLLKYGADVNAQDKFGKTAFDISIDNGNEDLAEILQKLN
notes: as for B1
In the experiment with human IL4 [1], B8 gave a Kd of 326 pM, a dissociation rate constant (koff) of 0.000281 s⁻¹ and a kon of 862000 M⁻¹ s⁻¹. The “HEK Stat6 Inhibition IC50” value with human IL4 [2] turned out to be 14.3 pM. The molecule further came in with a half-inhibitory concentration (IC50) with human IL4 [3] of 17.8 pM.

B9: 7D2 (designed binder)
chain: DLGKKLLEAARAGQDDEVRILMANGADVNAFDDFGSTPLHLAARSGHLEIVEVLLKHGADVNAHDMIGDTPLHLAAYHGHLEIVEVLLKYGADVNAKDTSGTTPLHLAADSGHLEIVEVLLKHGADVNAQDKFGKTAFDISIDNGNEDLAEILQKLN
notes: N-Cap-(AR)3-C-Cap
In the experiment with human IL13 [4], B9 returned a Kd of 95.5 pM, a dissociation rate constant (koff) of 0.000292 s⁻¹ and an on-rate (kon) of 3.06e+06 M⁻¹ s⁻¹. Moreover, in the experiment with human IL13 R130Q, the 50% inhibitory concentration (IC50) was 8.3 pM. The “Cyno IL13 STAT6 IC50” value with cyno IL13 amounted to 307 pM. For the same molecule, in the experiment with human IL13 [5], the “STAT6 Phospho IC50” value came out at 4.8 pM and the “TARC expression IC50” value amounted to 14.6 pM.
